Article PMC3989047, “Purification and characterization of tyrosinase from walnut leaves (Juglans regia)” (Phytochemistry, 2014)

What was measured:
purified protein [1] = substrate: N[C@@H](Cc1ccc(O)c(O)c1)C(=O)O; assay: purified protein; format: biochemical, Juglans regia; conditions: 50 mM sodium phosphate pH 6.5, five substrate concentrations 0.29-1.96 mM
purified protein [2] = substrate: N[C@@H](Cc1ccc(O)cc1)C(=O)O; assay: purified protein; format: biochemical, Juglans regia; conditions: 50 mM sodium phosphate pH 6.5, five substrate concentrations 0.29-1.96 mM

B1: jrPPO1(Asp101 → Arg445), Juglans regia tyrosinase (form 2) (Juglans regia) (protein)
chain: DPVSAPELTLCSEADLPAGALPVNCCPPTSKKIKDFVLPSQNTPLRVRPAAHLVDNDYIAKYNKGIELMKSLPADDPRSFTQQANVHCAYCDGAYTQVGFPDLSLQVHECWLFFPFHRYYVYFFEKILGKLIGDPTFALPFWNWDSPPGMQLPSLYAVSNSAIYDPLRNANHQPPTIIDLDYGETSESTTTTDQVPSNLKIMYRQMVSGAKNPTLFFGSPYRAGDEPDPGAGTIESTPHNNIHLWTGDDTQPNIENMGNFYSAGRDPIFFAHHSNVDRMWTIWKTLGGKRKDITDPDWLNSSFFFYDENADPVRVKVKDCVDNTKLRYVYQDVEIPWLKTKPTPR
notes: native, purified from walnut leaves; 39,047 Da
Km (purified protein [1]): 8.8 mM | Vmax (purified protein [1]): 60 µM/min | Vmax/Km (purified protein [1]): 0.01 min⁻¹ | kcat (purified protein [1]): 199 s⁻¹ | kcat/Km (purified protein [1]): 22800 M⁻¹ s⁻¹ | Km (purified protein [2]): 1.9 mM | Vmax (purified protein [2]): 80 µM/min | Vmax/Km (purified protein [2]): 0.04 min⁻¹ | kcat (purified protein [2]): 20.8 s⁻¹ | kcat/Km (purified protein [2]): 10900 M⁻¹ s⁻¹
